Data on two molecules can be found in patent publication US20220235138A1, “CAR-T CELLS TARGETING IL-1RAP AND THEIR USE IN ACUTE MYELOID LEUKEMIA (AML)” (ETABLISSEMENT FRANCAIS DU SANG, priority 2019, published 2022).

Assay [1] deals with recombinant IL-1RAP biotinylated protein (UniProt Q9NPH3). Nature of the assay: flow cytometry, biotinylated IL-1RAP (1.25 ng) on CAR-transduced CEM cells, anti-biotin antibody.
The target is the same in assay [2]. The assay is described as follows: flow cytometry, biotinylated IL-1RAP (0.15 ng) on CAR-transduced primary T cells, anti-biotin antibody.
Assay [3] has the same target. The assay is described as follows: flow cytometry, serial dilution of biotinylated IL-1RAP on CAR-transduced CEM cells, anti-biotin antibody; single experiment.
For assay [4] the target is unchanged. The assay is described as follows: flow cytometry, serial dilution of biotinylated IL-1RAP on CAR-transduced primary T cells, anti-biotin antibody; single experiment.
Assay [5] has as its target IL-1RAP expressed at the cell surface of human cells (human), Q9NPH3. Nature of the assay: flow cytometry on monocytes of healthy donors' peripheral blood (2/5) and bone marrow (3/5); RFI against isotype. Particulars: remark: other sources report otherwise.

A value given as a limit tells only on which side of the number the result lay.

recombinant IL-1RAP biotinylated protein, sequence (Q9NPH3 21-359 limits assumed): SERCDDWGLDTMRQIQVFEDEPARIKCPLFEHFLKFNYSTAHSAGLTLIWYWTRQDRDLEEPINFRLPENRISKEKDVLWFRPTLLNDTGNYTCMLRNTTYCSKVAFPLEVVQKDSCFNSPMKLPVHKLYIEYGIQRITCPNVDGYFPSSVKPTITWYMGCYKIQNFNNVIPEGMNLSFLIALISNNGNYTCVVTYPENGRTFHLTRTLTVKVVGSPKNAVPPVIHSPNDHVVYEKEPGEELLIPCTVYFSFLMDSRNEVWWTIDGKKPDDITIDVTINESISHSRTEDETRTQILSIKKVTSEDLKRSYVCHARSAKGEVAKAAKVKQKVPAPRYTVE
IL-1RAP expressed at the cell surface of human cells (human), Q9NPH3, sequence (Q9NPH3 21-570): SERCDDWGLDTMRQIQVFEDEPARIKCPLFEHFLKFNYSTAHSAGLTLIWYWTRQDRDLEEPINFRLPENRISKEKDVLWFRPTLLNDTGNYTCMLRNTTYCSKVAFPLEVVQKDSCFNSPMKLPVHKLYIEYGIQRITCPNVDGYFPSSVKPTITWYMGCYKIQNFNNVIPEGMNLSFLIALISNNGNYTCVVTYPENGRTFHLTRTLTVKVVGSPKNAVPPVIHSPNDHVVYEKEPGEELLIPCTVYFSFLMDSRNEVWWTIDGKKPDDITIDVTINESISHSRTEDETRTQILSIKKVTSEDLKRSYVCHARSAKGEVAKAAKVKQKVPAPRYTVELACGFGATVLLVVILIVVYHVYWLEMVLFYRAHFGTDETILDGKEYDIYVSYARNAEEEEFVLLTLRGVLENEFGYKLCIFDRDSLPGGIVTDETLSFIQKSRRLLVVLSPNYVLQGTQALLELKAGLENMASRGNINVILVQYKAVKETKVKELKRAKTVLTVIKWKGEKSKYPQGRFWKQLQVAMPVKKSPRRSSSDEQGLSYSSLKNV

B1: IL-1RAP CAR (scFv of #E3C3 with CD28-4.1BB-CD3z signaling chain) expressed at the surface of transduced CEM or primary T cells (protein, not shown: small tags and cut ends)
scFv: QVQLQQPGAELMMPGASVKVSCEASGYTFTDSWMHWVKQRPGQGLEWIGAIDPSDSYTTYNQKFTGKATLSVDESSNTAYMQLSSLTSEDSAVYYCARYYSGSNYISPFPYWGQGTLVTVSAGGSGGGGSGGGGSVDMESQIQVFVFVFLWLSGVDGDIVMTQSHKFMSTSVGDRVTITCKASLDVSTAVAWYQQKPGQSPKLLIYSASYRYTGVPDRFTGSGSGTDFTFTISSVQAEDLAVYYCQQHYSPPFTFGSGTNLEIK
Turning to B1, the maximum percentage of Biotin+/CD19+ cells in assay [1] was found to be 85.8%; in assay [2] it was 68.5%. For the same molecule, the amount of recombinant protein required for recruiting maximum of cells was 1.25 ng in assay [3] and 0.15 ng in assay [4].

B2: mouse anti-hIL-1RAP monoclonal antibody, clone #E3C3 (antibody, V domains shown)
VH: QVQLQQPGAELMMPGASVKVSCEASGYTFTDSWMHWVKQRPGQGLEWIGAIDPSDSYTTYNQKFTGKATLSVDESSNTAYMQLSSLTSEDSAVYYCARYYSGSNYISPFPYWGQGTLVTVSA
VL: DIVMTQSHKFMSTSVGDRVTITCKASLDVSTAVAWYQQKPGQSPKLLIYSASYRYTGVPDRFTGSGSGTDFTFTISSVQAEDLAVYYCQQHYSPPFTFGSGTNLEIK
B2 displayed an RFI in assay [5] of less than 2.
